The source of these data is patent US6884600.

The target of series [1] is T1, GST-M110-(M1-E309), GST tag not cleaved.
T1 chain: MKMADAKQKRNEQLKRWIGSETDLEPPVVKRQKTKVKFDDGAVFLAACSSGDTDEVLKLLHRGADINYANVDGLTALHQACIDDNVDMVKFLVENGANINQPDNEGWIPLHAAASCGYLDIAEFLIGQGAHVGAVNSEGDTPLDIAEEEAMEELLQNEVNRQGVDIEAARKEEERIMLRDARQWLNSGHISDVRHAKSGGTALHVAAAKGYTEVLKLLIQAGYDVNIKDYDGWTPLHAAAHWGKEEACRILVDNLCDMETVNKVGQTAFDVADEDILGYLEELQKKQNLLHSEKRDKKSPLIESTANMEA

Series [2] concerns the target catalytic subunit of protein phosphatase-1, γ1-isoform (PP1γ1), produced in Escherichia coli (UniProt P36873). As to the kind of experiment: co-crystal structure at 3.0 Å, method of Lee and Richards.

Sequence of catalytic subunit of protein phosphatase-1, γ1-isoform (PP1γ1), produced in Escherichia coli (P36873 whole entry, canonical isoform): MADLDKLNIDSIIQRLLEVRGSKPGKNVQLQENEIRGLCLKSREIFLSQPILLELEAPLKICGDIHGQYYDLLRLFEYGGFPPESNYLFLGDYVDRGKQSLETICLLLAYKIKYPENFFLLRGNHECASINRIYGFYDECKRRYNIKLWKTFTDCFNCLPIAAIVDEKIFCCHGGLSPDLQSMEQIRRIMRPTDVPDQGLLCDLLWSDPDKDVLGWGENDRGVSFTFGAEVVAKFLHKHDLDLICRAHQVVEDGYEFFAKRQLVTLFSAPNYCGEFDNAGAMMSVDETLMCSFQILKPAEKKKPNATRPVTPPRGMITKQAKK

B1: β isoform of PP1c released from rabbit skeletal muscle PP1G (protein)
chain: ADGELNVDSLITRLLEVRGCRPGKIVQMTEAEVRGLCIKSREIFLSQPILLELEAPLKICGDIHGQYTDLLRLFEYGGFPPEANYLFLGDYVDRGKQSLETICLLLAYKIKYPENFFLLRGNHECASINRIYGFYDECKRRFNIKLWKTFTDCFNCLPIAAIVDEKIFCCHGGLSPDLQSMEQIRRIMRPTDVPDTGLLCDLLWSDPDKDVQGWGENDRGVSFTFGADVVSKFLNRHDLDLICRAHQVVEDGYEFFAKRQLVTLFSAPNYCGEFDNAGGMMSVDETLMCSFQILKPSEKKAKYQYGGLNSGRPVTPPRTANPPKKR
With B1, the “concentration needed to modulate the substrate specificity of PP1c, relative to the cleaved fragment” value in series [1] was “If the GST tags were not cleaved with thrombin, a 10-fold higher concentration of M110-(M1-E309) was needed to modulate the substrate specificity of PP1c”.

B2: GM-(G63-N75) synthetic peptide (peptide)
peptide: GRRVSFADNFGFN
B2: in series [2], the total solvent accessible surface area buried on formation of the complex turned out to be 980 Å2.
